Here are results for 37 sequences from the supplement of paper PMC7877785.

A short description of the data set: self-splicing fitness, log relative to wild type (ln ratio); higher = more splicing; Tetrahymena group I intron in knt gene, E. coli kanamycin selection, DiMSum; sequences stand for … in CUCUCU…GGAGGGAAAAGUUAUCAGGCAUGCACCUGGUAGCUAGUCUUUAAACCAAUAGAUUGCAUCGGUUUAAAAGGCAAGACCGUCAAAUUGCGGGAAAGGGGUCAACAGCCGUUCAGUACCAAGUCUCAGGGGAAACUUUGAGAUGGCCUUGCAAAGGGUAUGGUAAUAAGCUGACGGACAUGGUCCUAACCACGCAGCCAAGUCCUAAGUCAACAGAUCUUCUGUUGAUAUGGAUGCAGUUCACAGACUAAAUGUCGGUCGGGGAAGAUGUAUUCUUCUCAUAAGAUAUAGUCGGACCUCUCCUUAAUGGGAGCUAGCGGAUGAAGUGAUGCAACACUGGAGCCGCUGGGAACUAAUUUGUAUGCGAAAGUAUAUUGAUUAGUUUUGGAGUACUCGUGGUCG
Summed up:
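The eight P1ex-region nucleotides of an intron in the knt kanamycin-resistance gene on pET-22b(+) were all randomised and the library put into E. coli BL21(DE3). Six replicate transformations were grown overnight at 37°C or 30°C on LB agar with or without 25 μg/mL kanamycin, together with 100 μg/mL carbenicillin, 50 μM IPTG and 0.2% rhamnose. Colonies were pooled and amplicon-sequenced on an Illumina HiSeq 2500. Fitness from DiMSum is the error-weighted combination of wild-type-normalised replicate fold changes, kanamycin over none.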

± gives the uncertainty stated by the source.

For GGAAAGCAAUAUUACGAGGA, the “self-splicing fitness (ln)” value is -2.88 ± 0.21 (30 °C) and -1.93 ± 0.24 (37 °C).

With UGCAAGCAAUAUUACGCAUG, the “self-splicing fitness (ln)” value (30 °C) is -3.63 ± 0.21 and the “self-splicing fitness (ln)” value (37 °C) is -2.32 ± 0.29.

As for UUCGAGCAAUAUUACGUUCC, the “self-splicing fitness (ln)” value reads like this: (30 °C) -2.94 ± 0.26; (37 °C) -1.19 ± 0.3.

For the sequence AAUUAGCAAUAUUACGAUGC, the “self-splicing fitness (ln)” value (30 °C) is -1.25 ± 0.15 and the “self-splicing fitness (ln)” value (37 °C) was -0.872 ± 0.18.

UGCCAGCAAUAUUACGGCGU: the “self-splicing fitness (ln)” value is, setting by setting: (30 °C) -3.04 ± 0.16; (37 °C) -3.16 ± 0.27.

CAAGAGCAAUAUUACGAUGG: the “self-splicing fitness (ln)” value (30 °C) is -1.1 ± 0.091 and the “self-splicing fitness (ln)” value (37 °C) is -0.943 ± 0.077.

As for GCCUAGCAAUAUUACGCCUU, the “self-splicing fitness (ln)” value was -1.15 ± 0.086 (30 °C) and -0.212 ± 0.1 (37 °C).

Consider GCUAAGCAAUAUUACGUCGA, for which the “self-splicing fitness (ln)” value by setting is: (30 °C) -1.21 ± 0.11; (37 °C) -0.619 ± 0.15.

Regarding CUGCAGCAAUAUUACGUGUC, the “self-splicing fitness (ln)” value by setting is: (30 °C) -4.46 ± 0.28; (37 °C) -2.79 ± 0.29.

For CGGCAGCAAUAUUACGGUGA, the “self-splicing fitness (ln)” value runs as follows: (30 °C) -3.35 ± 0.21; (37 °C) -1.75 ± 0.17.

For the sequence AUUAAGCAAUAUUACGCAUU, the “self-splicing fitness (ln)” value (30 °C) was -2.35 ± 0.14 and the “self-splicing fitness (ln)” value (37 °C) is -0.664 ± 0.13.

Consider AAUUAGCAAUAUUACGAUCG, for which the “self-splicing fitness (ln)” value is, setting by setting: (30 °C) -0.473 ± 0.13; (37 °C) 0.0147 ± 0.16.

On to CCCAAGCAAUAUUACGAGCG, for which the “self-splicing fitness (ln)” value is, setting by setting: (30 °C) -2.62 ± 0.12; (37 °C) -2 ± 0.13.

As for UGAUAGCAAUAUUACGUGAU, the “self-splicing fitness (ln)” value (30 °C) is -3.09 ± 0.11 and the “self-splicing fitness (ln)” value (37 °C) is -2.43 ± 0.17.

With UGACAGCAAUAUUACGUCCG, the “self-splicing fitness (ln)” value by setting is: (30 °C) -0.00105 ± 0.12; (37 °C) -0.342 ± 0.13.

Consider CCCUAGCAAUAUUACGUUUA, for which the “self-splicing fitness (ln)” value by setting is: (30 °C) -2.91 ± 0.14; (37 °C) -2.16 ± 0.16.

In the case of UCAUAGCAAUAUUACGCCUA, the “self-splicing fitness (ln)” value runs as follows: (30 °C) -2.62 ± 0.34; (37 °C) -1.85 ± 0.27.

In the case of GACGAGCAAUAUUACGCUGG, under “37 °C”, the “self-splicing fitness (ln)” value is -2.79 ± 0.43.

For the sequence UUGCAGCAAUAUUACGAAUU, the “self-splicing fitness (ln)” value (30 °C) is -2.18 ± 0.18 and the “self-splicing fitness (ln)” value (37 °C) was -0.985 ± 0.19.

Turning to GAGCAGCAAUAUUACGUAAA, the “self-splicing fitness (ln)” value runs as follows: (30 °C) -1.89 ± 0.14; (37 °C) -1.13 ± 0.14.

As for UCUCAGCAAUAUUACGCAAU, the “self-splicing fitness (ln)” value is, setting by setting: (30 °C) -2.45 ± 0.23; (37 °C) -1.89 ± 0.23.

With UGGCAGCAAUAUUACGGUCA, the “self-splicing fitness (ln)” value was -2.12 ± 0.18 (30 °C) and -1.58 ± 0.15 (37 °C).

UCUCAGCAAUAUUACGAUCG: the “self-splicing fitness (ln)” value runs as follows: (30 °C) -1.29 ± 0.12; (37 °C) -0.618 ± 0.15.

In the case of CCGUAGCAAUAUUACGGUGG, the “self-splicing fitness (ln)” value was -2.59 ± 0.16 (30 °C) and -1.1 ± 0.17 (37 °C).

With UCGAAGCAAUAUUACGGGAC, the “self-splicing fitness (ln)” value is -3.19 ± 0.47 (30 °C) and -3.17 ± 0.33 (37 °C).

As to GGACAGCAAUAUUACGCCUG, the “self-splicing fitness (ln)” value reads like this: (30 °C) -2.65 ± 0.15; (37 °C) -0.758 ± 0.13.

For the sequence ACACAGCAAUAUUACGAAAA, the “self-splicing fitness (ln)” value was -3.2 ± 0.19 (30 °C) and -3 ± 0.19 (37 °C).

In the case of GAGCAGCAAUAUUACGCGUG, the “self-splicing fitness (ln)” value by setting is: (30 °C) -1.92 ± 0.15; (37 °C) -1.66 ± 0.18.

UCUUAGCAAUAUUACGCGUA: the “self-splicing fitness (ln)” value runs as follows: (30 °C) -3.4 ± 0.24; (37 °C) -1.38 ± 0.15.

In the case of CGAAAGCAAUAUUACGUCUC, the “self-splicing fitness (ln)” value is -2.71 ± 0.42 (30 °C) and -1.15 ± 0.26 (37 °C).

Consider GUCAAGCAAUAUUACGGGCC, for which the “self-splicing fitness (ln)” value reads like this: (30 °C) -3.75 ± 0.27; (37 °C) -2.77 ± 0.31.

Consider GGGCAGCAAUAUUACGUCGA, for which the “self-splicing fitness (ln)” value (30 °C) was -0.0821 ± 0.07 and the “self-splicing fitness (ln)” value (37 °C) was determined as 0.711 ± 0.1.

Take UAUCAGCAAUAUUACGCAGA: the “self-splicing fitness (ln)” value by setting is: (30 °C) -1.57 ± 0.15; (37 °C) -1.03 ± 0.1.

Consider AUCUAGCAAUAUUACGUCGA, for which the “self-splicing fitness (ln)” value by setting is: (30 °C) -1.39 ± 0.11; (37 °C) -0.769 ± 0.12.

Take CCACAGCAAUAUUACGUCUU: the “self-splicing fitness (ln)” value is -3.88 ± 0.14 (30 °C) and -2.85 ± 0.12 (37 °C).

As for GUAAAGCAAUAUUACGAGGU, the “self-splicing fitness (ln)” value is -3.07 ± 0.13 (30 °C) and -1.83 ± 0.24 (37 °C).

Consider GGCUAGCAAUAUUACGAUCG, for which the “self-splicing fitness (ln)” value reads like this: (30 °C) -0.651 ± 0.12; (37 °C) -0.58 ± 0.15.
